Patent publication US20250197889

Experiments:
[1] = target: AcrIIC3Nme
[2] = target: AcrIIC4Hpa
[3] = target: AcrIIC1Nme
[4] = target: AcrE2
[5] = target: AcrIIC2Nme
[6] = target: AcrIIC5Smu

B1: Nme1Cas9 (Neisseria meningitidis strain 8013 Cas9), recombinant purified protein (protein)
chain: MAAFKPNSINYILGLDIGIASVGWAMVEIDEEENPIRLIDLGVRVFERAEVPKTGDSLAMARRLARSVRRLTRRRAHRLLRTRRLLKREGVLQAANFDENGLIKSLPNTPWQLRAAALDRKLTPLEWSAVLLHLIKHRGYLSQRKNEGETADKELGALLKGVAGNAHALQTGDFRTPAELALNKFEKESGHIRNQRSDYSHTFSRKDLQAELILLFEKQKEFGNPHVSGGLKEGIETLLMTQRPALSGDAVQKMLGHCTFEPAEPKAAKNTYTAERFIWLTKLNNLRILEQGSERPLTDTERATLMDEPYRKSKLTYAQARKLLGLEDTAFFKGLRYGKDNAEASTLMEMKAYHAISRALEKEGLKDKKSPLNLSPELQDEIGTAFSLFKTDEDITGRLKDRIQPEILEALLKHISFDKFVQISLKALRRIVPLMEQGKRYDEACAEIYGDHYGKKNTEEKIYLPPIPADEIRNPVVLRALSQARKVINGVVRRYGSPARIHIETAREVGKSFKDRKEIEKRQEENRKDREKAAAKFREYFPNFVGEPKSKDILKLRLYEQQHGKCLYSGKEINLGRLNEKGYVEIDHALPFSRTWDDSFNNKVLVLGSENQNKGNQTPYEYFNGKDNSREWQEFKARVETSRFPRSKKQRILLQKFDEDGFKERNLNDTRYVNRFLCQFVADRMRLTGKGKKRVFASNGQITNLLRGFWGLRKVRAENDRHHALDAVVVACSTVAMQQKITRFVRYKEMNAFDGKTIDKETGEVLHQKTHFPQPWEFFAQEVMIRVFGKPDGKPEFEEADTLEKLRTLLAEKLSSRPEAVHEYVTPLFVSRAPNRKMSGQGHMETVKSAKRLDEGVSVLRVPLTQLKLKDLEKMVNREREPKLYEALKARLEAHKDDPAKAFAEPFYKYDKAGNRTQQVKAVRVEQVQKTGVWVRNHNGIADNATMVRVDVFEKGDKYYLVPIYSWQVAKGILPDRAVVQGKDEEDWQLIDDSFNFKFSLHPNDLVEVITKKARMFGYFASCHRGTGNINIRIHDLDHKIGKNGILEGIGVKTALSFQKYQIDELGKEIRPCRLKKRPPVR
- in vitro cleavage of a target DNA by Cas9-sgRNA (10:1 Acr:Cas9 molar ratio) [1]: all Arc families inhibited Nme1Cas9
- in vitro cleavage of a target DNA by Cas9-sgRNA (10:1 Acr:Cas9 molar ratio) [2]: all Arc families inhibited Nme1Cas9
- in vitro cleavage of a target DNA by Cas9-sgRNA (10:1 Acr:Cas9 molar ratio) [3]: all Arc families inhibited Nme1Cas9
- in vitro cleavage of a target DNA by Cas9-sgRNA (10:1 Acr:Cas9 molar ratio) [4]: AcrE2 failed to do so
- in vitro cleavage of a target DNA by Cas9-sgRNA (10:1 Acr:Cas9 molar ratio) [5]: all Arc families inhibited Nme1Cas9
- in vitro cleavage of a target DNA by Cas9-sgRNA (10:1 Acr:Cas9 molar ratio) [6]: all Arc families inhibited Nme1Cas9
